From a protein production outcome set (Wang et al. 2014)

Assay: label from the status in PepcDB records
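Note: failed if final PepcDB status was selected cloned or expressed and not failed if soluble or beyond.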

With “MKKRILSAVLVSGVTLGTAAVTVNADDFDSKIAATDSVINTLSGQQAAAQNQVTAIKGQVGALESQQSELEAQNAQLEAVSQQLGQEIQTLSNKIVARNESLKKQVRSAQKGNLTNYINTILNSKSVSDAVNRVVAIREVVSANEKMLAQQEADKAALEAKQIENQNAINTVAANKQAIENNKAALATQRAQLEAAQLELSAQLTTVQNEKASLIQAKAQAEEAARKAAEAQAAAEAKAQAEAKAQAESVAKAQAAAQVESATAPTETVQTQPRTEIKPSNLTATSSATTVATTTATATNEPKVTQPSVVTKAVEAPKAVVSSTPRAVSKPVVRSYDSSNTYPMGQCTWGAKSMASWVGNYWGNANQWGASARAAGYSVGTTPRVGAVAVWPYDGGGYGHVAVVTSVANNSSIQVMESNYAGNMSIGNYRGSFNPSASGSVYYIYPN” the protein production was “failed”.

For “MKIRPFLVALGLTTFAGAAHGANFEDLTQLLSTKKCPLCDLRGAGLVMVNLTRADLTGADLSGANLSGADLTGANLSGANLTSASLNGANLSGANLNGAITDGTDFREAYFDRATFINTNLETAYMQGAKAVPNTAGTPQLFYGWGLLETSKGNYQSALNHYDQALALDPEFAPGYLGRGLTLLKIGNEASAKQNVEYAQLLFEENQDEVGVKTSEQFLEDLANMQEARRQGAGNPQLDAIVRGVASMAFKYLLPLVGL”, the protein production was “failed”.

For “MATTKKKPIHVNVDENLKEEAEQLFDDLGLNMTSAITIFLKQSINEQAIPFMINKGNKETLQALKDIKEGNVHGGFSSVEDLMEDLNALEHHHHHH”, the protein production was “not failed”.

For “MIYLFTGNMGTGKTSRVVSMILNNEDGLFKMKLEDGTEVDRPLYFCHIDGLDKRQFKAHELTEEQIMSAPLRDVIPEGAVLIVDEAHYTYPVRAAGRPVPPYIQELTELRHHGHTVILMTQHPSQLDIFVRNLVSKHVHLERKAIGMKQYYWYKCVTSLDNPAGVSGVEVASWKPPKEAFKYYKSASQHQ”, the protein production was “not failed”.

With “MNSKENLKIVQLSDLHIKKDFNADRLDKVIQKTNEQNPDFIIFSGDLYDNYSQYNENEAVISKLKSLKAKYGKIAIWGNRDYGGGAVKEYANIMAESDFSLLRNENQVFTLDNGKKILFTGLDDALLGNPQFPSLEHHHHHH” the protein production was “not failed”.

For “MANKKNKVKFNICNVHYAPITVADEGKVSFGTPVAMPGAVSISMDPTGEPESFYADGIEYYVINNNQGYDGDLELAMIPETFRTDILKEEADSNNVLVENANSETGSFALLFEFDGDIRKIRHVLYNCSASRPTIESKTNEEDKEVQTETLTIKARPMADGYVKAKTGDSTTDTVYNNWYKSVYLPNSLEHHHHHH”, the protein production was “failed”.

With “MTFNALRPVASKVIDPLADFFIRYEVSPDTVSIVSLICAFFAGLSFYYSPAYQELALLAGILVVFNSLFDALDGVIARKSNRATPRGDFLDHVIDRYSDVFIICSIFFAGYVSWQIGVAAIVGVLLTSYLGTQAQALNLGRYYGGIMGRADRLVVIILAAFANSVYPASIAGFPILGWAVILIAVTSHITAIQRIMYIWRRLD” the protein production was “failed”.

For “MPLVHRSALPALCLSLILPWTFSVQAADPAPETKTPEEQPAQRQPLPERSQKDAAALERQLPALEQQQLQAGGDTFLALWKPANTSDPKGVVIILPGAGETADWPQAIAPLRNKLPDTEWASLSLTLPDMLSEAAQPRVVEAAPVPTDKANTAKDASTEAKPIEQVAGGEADVADRVVAESTEEQIKADAERIFTRVDAALAFAEQQNARSIVLLGHGTGAYWAARYLSEKQPAQVQKLVMVAAQSPANGKPQLAEITPTLKLATADFFYVDKPLAQKAALERLQASKRLKHSNFSQIPLKALPGNNTAQQEQLFRRVRGWLNPQNTDS”, the protein production was “not failed”.

In the case of “MDFVEFWSQLIRNVRWRRACVLALIVLTLYLASSMMSIILLTFIFTFLVTRLVRAVRRWVKIPPTIIVLVVYALVILGIYFAVSIYLPQLIKQTFLTFESVYRFYQNPSHDTNQVLTWVTSYFQESDILKQLKGGISVVFQYITNIGNMGLTFFLSFILSFFFTIEDHQMRVFTKRFLTSTFGWFFQDVHFFAKKFVNSFGVVLEAQFLIAIVNTVITVTFMAILKMPQLISLGLMIFILSLIPVAGVIISVVPLSLIAYSVGGLRYVVYMLLMILVVHALEAYVLNPKFMSSRTELPIFYTFVVLLVSERLFGVWGLIVGVPIFNFILDIIGVKPVHRPRPNINLKKTITFHPDSENKR”, the protein production is reported as “failed”.

For “MKKNDLSALQENCFCFCDEEISREAPFQVPIDFPEGFKVDTAEASAAVTWSTDNLSCISEPCLIQTGPEPEDIGVRYAVRVQGTITLLVSVSPVRNQYGQGDGAVSVIHTEEIDQVVYYAAQSGRCPDFSQITVEDLLIVPPFYGSPLTVAGTLVLPPSPDPQSYVFTANTGDSTVSVIDADLNTVVKTIPFSDVPTNLGVTFDKAFTYVLHGNTNLVSVIDNKTLTIINTITVGGGPRKIEFDPTDEFAYVMAAGSIYVINTASQSVIDVIPIPGALDFALDPNGQYVYTANGSSWSVDKYDVNTGQLVESIIDTFEFPSLITTPYAGNFAYVLNGELWPKGVTEISLSPLSRGGDFSRLFETLRTIVFSLDSTRAYFLEPYSEPFLINNLYVVNTARQRIIANVSLPGAFDLAVTPDKQYIYAAQPNDNAVTVYRTSDYTAVTVIPVGAGPSAIAMLEHHHHHH”, the protein production was “failed”.

For “MGSSHHHHHHSSGLVPRGSHMGKEYFLKVALREAKRAFEKGEVPVGAIIVKEGEIISKAHNSVEELKDPTAHAEMLAIKEACRRLNTKYLEGCELYVTLEPCIMCSYALVLSRIEKVIFSALDKKHGGVVSVFNILDEPTLNHRVKWEYYPLEEASELLSEFFKKLRNNII”, the protein production was “not failed”.

In the case of “MLEKIFNSLCSLVPKRYNMKEETNIVGIYNEHYLLSEKSNLVGALKLEGISYLSLDDKEIAQKFNERILALNEIVDGVHFKIVVKRRKIFMHHEYTQEEISNPFALEVINLWEQGVEDVYQNFYYLIFETKNDSIKGYLERFKKKITTNELENIQENNRQDEVKYQENYFIGFDNFNLLDKSKILYSIINNVKNMLSGLFVEKIDANSLLNFYAEYINGVPSEYTFARGRLHDGMINSDVHFKKDFFTHIHNGKEIFKRFISIKTYDIDKIVSTALSSVLHLSLEFDVILNIDNIPKAKAEKRIETKRKRANKSIRVEIDELNDMIKTDRVLMQEISLNILVHAKTKTDLDSACIEITNLLKQKGIVSTQESIGMLPMFFSFFPNRNRLNFRKRLLSSQNIASLIILEKQNCGFSRNSWGDRHLTIFRNQDKSPYLFNFHAYEAKRKNDMVSGHTIIFGGTGAGKTTLIEFLITNCFKYEDLSILALDRNNGMRVMTEFLDGQYNDSNDFYINPFSLKDTSANCTFLVSWLAFMLNIDEDTKDEKEKKTLSALSKTIRVCYNNITKQGGAIFKLRDFKDTLEIDYLDSKDILEKESSKDLYKHSTDCLDFAKKLSVIDMDALSSSKKDFNLAVLYLFYKVMNRAKLENKPFYIFIDEAKSVIENPIMLAKIKDTLAQARKLNGVLTLAFQDINQLDGVEGAKSIIENAAQVILYPTNNFEKLESYGILLSPIEKSFLNKTPLNARQVLVKNLLTQSSVFLEINLEKLNSTSKKFLRAYNSSASSVFELETLKKDNPKDYKEIYLTKE”, the protein production is reported as “failed”.

In the case of “MTFHWKDLTPWRRIKGVAITILYLLFCIWAGPFWLIFLPLIVDYYFFHIIKWGWYKNIRNKTLRIICSWVADIIYCVVAVTFIFAFLFQNFAIPTSSLEKTLLIGDYLFVSKLSYGPRSPMTPLGVPLTHNTMPLTGGKSFSDKPLLPYKRLKGFGHVKEGDLVVFNFPAGDTVAVKQPNPDYYMWKKLVGREELWSNPDFYGEIVYRPVDRRDHYVKRCVGMPGQELSIRNNQIYIDGKEQRNPRNMQLNYLVRMSREMSVDLIDELGISYDDVRAASSEELKASVGSNLIDSASNQPQIIYHLPLTQGMLDKLQAEPSFVKAVEEPTPIGPLYPLEYETGWTRDNYGPIVIPAKGMTVRLTPLNLALYSRCIRNFEGNKLVQKADGTVLINGRPADSYTFKMDYYFMMGDNRHNSADSRYWGFVPEDHIVGKPVFIWLSLNKDKSLFGGKIRFGRMMRTVNAD”, the protein production is reported as “failed”.

For “MKAKLENRLERQLQQLSYARGLILDEIGYLPMTSEEASLFFRLLNRRYEKASIILTSNKGFADWGEMFGDNVLATAILDRLLHHSTTLNIKGESYQLKEKRKVGALTKSATPISEDEMAESGQQK”, the protein production was “failed”.

For “MKQTAESIRDRFMKLGIDVPVEDIESRLDELIKKFKVPSNEAQRSVTNYFLKKYSIPKNEFYVRQAEPQLTKIVDIVENGQWANLKAKVIQLWENTHESISQVGLLGDETGIIKFTIWKNAELPLLEQGESYLLRSVVVGEYNDRFQVQVNKNSSIEKLSEPIEVGGGDFTPAAREAELRNIADLTGNQWATVRGKVIQLWENSHESIEQAGLIGDETGVIKFTNWASSELPDMEEGRSYLLKNVVVNEWNGKAQVQLNRSSSIEELDEDIEVRTSMSSYFGAMVDIQTGSGLIKRCPECKRALVKGACAEHGKVKGEYDLRIKAVLDSGTSTQDALINRELTEELSGISLDSAIAMAADALDPGVVLDKLKHELVGRYYTITGHKLDRYILVESITPRTSLDRELLDQMLAEPIAQPEVELEHHHHHH”, the protein production was “not failed”.

In the case of “MGDREKNVGFAASLNILFTIIELIGGILTNSLALLADAMHDFADSLALIVAWFAEKKAKKPATSKMTFGYRRLSLLSAAFATIVLIAGSLFILSQAIPRLLNPEPVNAEGMFLIAIIGVTINGLGYFRLKKGISQNEKILSWHLLEDILGWVVLLIGSVIIGFWNQPIIDPIMTIGFTIFVLWGVFKNAKETFNLLLEGVPEYIDIDEVKESILSVEGTKAVHDLHIWSLEGETDILTAHVVVEDEYLARPDKMRQSIKSRLEKHQIEHSTLELESEGFCSGTECIFELKG”, the protein production is reported as “failed”.

In the case of “MFGTPSSSPSFGTPSSTPAFGTSSPAFGTPSATPAFGTPSNPSFSSGGFGSSLFSSPFSSQQPQQQQQQQQQQQPSSLFQQQPSSNFGFQSPFNNTAQQQQQTPFPNAQLTTQMAPVAPIPYSLADRDVQAIIEAYKEDPTNPKYAFQHLLFSVTEPQYRVKPAAVSDIMWAEAMSKLEGMDSTERERLWPQLVQGFKDLSQRLKLQDEVLVSDRDRIKTTQSNVKMLQRHLQASTFPSIERLRQKEQSLQRRMLRVMRIIEGLEGKGFRLPLTKGEAELSEKLTAITRQVKGPGAELSRRVQSLQTISRAQANSIAAGSSLYLPGSTKIDEQSLIDMQEVLQQETEAIGRLGNVLKRDMRDMEIMVAEDTEMALDS”, the protein production is reported as “failed”.

With “MDPSAPALDSAFWITTGAILLLLILSGFFSGSETALTAASRGKLRSQADKGSKGAQKALAITDDNERLIGSVLLGNNLVNILAASLATALFTRAFGESGVALATLVMTLLVLIFAEVLPKTYAITNSEKAAAAVAPIIGVVVMVFSPVVALVRLLVRGVLRLFGVRIDPDSHIMAVREEIAGALYLGHSEGVVEKEDRDRILGALDLAERTVEEIMLHRSNIVMLDADAEPETILEHCLQSPHTRLPVYRGEPENIIGVVHAKDLFRAMYAQVGGSEGHTARLKDFDISRVANAPYFVPETTTLDDQMRAFLRMRSHFALVVDEYGSLRGLITLEDILEEIVGEITDEFDPAAEMPVTRSDDGQFLVDGAMTIRDVNRAMDWSLPDDEANTVAGLVIHEAQMIPTVGQVFAFHGFRFEVTGREGNRITGLKIRPL” the protein production was “failed”.
